7 molecules from paper PMC4090178, “Structural and Biochemical Characterization of Human PR70 in Isolation and in Complex with the Scaffolding Subunit of Protein Phosphatase 2A” (PLoS ONE, 2014) can be followed below.

B1: PR70 (105–575) (domain or fragment, human, UniProt Q9Y5P8 105-575, looked up)
chain: GTRVVQTRKEEPLPPATSQSIPTFYFPRGRPQDSVNVDAVISKIESTFARFPHERATMDDMGLVAKACGCPLYWKGPLFYGAGGERTGSVSVHKFVAMWRKILQNCHDDAAKFVHLLMSPGCNYLVQEDFVPFLQDVVNTHPGLSFLKEASEFHSRYITTVIQRIFYAVNRSWSGRITCAELRRSSFLQNVALLEEEADINQLTEFFSYEHFYVIYCKFWELDTDHDLLIDADDLARHNDHALSTKMIDRIFSGAVTRGRKVQKEGKISYADFVWFLISEEDKKTPTSIEYWFRCMDLDGDGALSMFELEYFYEEQCRRLDSMAIEALPFQDCLCQMLDLVKPRTEGKITLQDLKRCKLANVFFDTFFNIEKYLDHEQKEQISLLRDGDSGGPELSDWEKYAAEEYDILVAEETAGEPWEDGFEAELSPVEQKLSALRSPLAQRPFFEAPSPLGAVDLYEYACGDEDLEPL
notes: PR70 (B''β), regulatory B'' subunit of PP2A, human, product of PPP2R3B; source: E. coli BL21(DE3), purified (IMAC, TEV cleavage, gel filtration); not shown: His tag, N-terminal, cleaved
B2: PR70 (25–575) (domain or fragment, human, UniProt Q9Y5P8 25-575, looked up)
chain: EASTQRMLQDCLRRIKAPGRDQPTPGDGEQPGAWPTAPLAAPRPSGLEPPGTPGPGPALPLGAASSPRNAPHVRGTRRSAGTRVVQTRKEEPLPPATSQSIPTFYFPRGRPQDSVNVDAVISKIESTFARFPHERATMDDMGLVAKACGCPLYWKGPLFYGAGGERTGSVSVHKFVAMWRKILQNCHDDAAKFVHLLMSPGCNYLVQEDFVPFLQDVVNTHPGLSFLKEASEFHSRYITTVIQRIFYAVNRSWSGRITCAELRRSSFLQNVALLEEEADINQLTEFFSYEHFYVIYCKFWELDTDHDLLIDADDLARHNDHALSTKMIDRIFSGAVTRGRKVQKEGKISYADFVWFLISEEDKKTPTSIEYWFRCMDLDGDGALSMFELEYFYEEQCRRLDSMAIEALPFQDCLCQMLDLVKPRTEGKITLQDLKRCKLANVFFDTFFNIEKYLDHEQKEQISLLRDGDSGGPELSDWEKYAAEEYDILVAEETAGEPWEDGFEAELSPVEQKLSALRSPLAQRPFFEAPSPLGAVDLYEYACGDEDLEPL
notes: PR70 (B''β), regulatory B'' subunit of PP2A, human, product of PPP2R3B; also called B''/PR70; source: E. coli BL21(DE3), purified (IMAC, TEV cleavage, gel filtration); not shown: His tag, N-terminal, cleaved
B3: PR72 (24–529) (domain or fragment, UniProt Q06190-2 24-529, looked up)
chain: GCDFVLPSRFKKRLKSFQQTQIQNKPEKKPGTPLPPPATSPSSPRPLSPVPHVNNVVNAPLSINIPRFYFPEGLPDTCSNHEQTLSRIETAFMDIEEQKADIYEMGKIAKVCGCPLYWKAPMFRAAGGEKTGFVTAQSFIAMWRKLLNNHHDDASKFICLLAKPNCSSLEQEDFIPLLQDVVDTHPGLTFLKDAPEFHSRYITTVIQRIFYTVNRSWSGKITSTEIRKSNFLQTLALLEEEEDINQITDYFSYEHFYVIYCKFWELDTDHDLYISQADLSRYNDQASSSRIIERIFSGAVTRGKTIQKEGRMSYADFVWFLISEEDKRNPTSIEYWFRCMDVDGDGVLSMYELEYFYEEQCERMEAMGIEPLPFHDLLCQMLDLVKPAVDGKITLRDLKRCRMAHIFYDTFFNLEKYLDHEQRDPFAVQKDVENDGPEPSDWDRFAAEEYETLVAEESAQAQFQEGFEDYETDEPASPSEFGNKSNKILSASLPEKCGKLQSVDEE
notes: PR72 (B''α2), regulatory B'' subunit of PP2A, product of PPP2R3A; residues 24–529; the end at 529 fits the PR72 isoform of 529 residues, not PR130; also called PR72 subunit (residue 24–529); B''α2; source: E. coli BL21(DE3), purified (IMAC, TEV cleavage, gel filtration); not shown: His tag, N-terminal, cleaved
B4: PR70 core fragment (residues 130–483) (domain or fragment, human, UniProt Q9Y5P8 130-483, looked up)
chain: FPRGRPQDSVNVDAVISKIESTFARFPHERATMDDMGLVAKACGCPLYWKGPLFYGAGGERTGSVSVHKFVAMWRKILQNCHDDAAKFVHLLMSPGCNYLVQEDFVPFLQDVVNTHPGLSFLKEASEFHSRYITTVIQRIFYAVNRSWSGRITCAELRRSSFLQNVALLEEEADINQLTEFFSYEHFYVIYCKFWELDTDHDLLIDADDLARHNDHALSTKMIDRIFSGAVTRGRKVQKEGKISYADFVWFLISEEDKKTPTSIEYWFRCMDLDGDGALSMFELEYFYEEQCRRLDSMAIEALPFQDCLCQMLDLVKPRTEGKITLQDLKRCKLANVFFDTFFNIEKYLDHEQK
notes: PR70 (B''β), regulatory B'' subunit of PP2A, human, product of PPP2R3B; The crystal (PDB 4MEW) was of the selenomethionine-labelled protein alone; the model holds residues 134–481; also called PR70 core domain; source: E. coli BL21(DE3), purified (IMAC, TEV cleavage, gel filtration); not shown: His tag, N-terminal, cleaved
B5: PR70 (130–555) (domain or fragment, human, UniProt Q9Y5P8 130-555, looked up)
chain: FPRGRPQDSVNVDAVISKIESTFARFPHERATMDDMGLVAKACGCPLYWKGPLFYGAGGERTGSVSVHKFVAMWRKILQNCHDDAAKFVHLLMSPGCNYLVQEDFVPFLQDVVNTHPGLSFLKEASEFHSRYITTVIQRIFYAVNRSWSGRITCAELRRSSFLQNVALLEEEADINQLTEFFSYEHFYVIYCKFWELDTDHDLLIDADDLARHNDHALSTKMIDRIFSGAVTRGRKVQKEGKISYADFVWFLISEEDKKTPTSIEYWFRCMDLDGDGALSMFELEYFYEEQCRRLDSMAIEALPFQDCLCQMLDLVKPRTEGKITLQDLKRCKLANVFFDTFFNIEKYLDHEQKEQISLLRDGDSGGPELSDWEKYAAEEYDILVAEETAGEPWEDGFEAELSPVEQKLSALRSPLAQRPFFEAPS
notes: PR70 (B''β), regulatory B'' subunit of PP2A, human, product of PPP2R3B; residues 130–555; source: E. coli BL21(DE3), purified (IMAC, TEV cleavage, gel filtration); not shown: His tag, N-terminal, cleaved
B6: PR70 (130–504) (domain or fragment, human, UniProt Q9Y5P8 130-504, looked up)
chain: FPRGRPQDSVNVDAVISKIESTFARFPHERATMDDMGLVAKACGCPLYWKGPLFYGAGGERTGSVSVHKFVAMWRKILQNCHDDAAKFVHLLMSPGCNYLVQEDFVPFLQDVVNTHPGLSFLKEASEFHSRYITTVIQRIFYAVNRSWSGRITCAELRRSSFLQNVALLEEEADINQLTEFFSYEHFYVIYCKFWELDTDHDLLIDADDLARHNDHALSTKMIDRIFSGAVTRGRKVQKEGKISYADFVWFLISEEDKKTPTSIEYWFRCMDLDGDGALSMFELEYFYEEQCRRLDSMAIEALPFQDCLCQMLDLVKPRTEGKITLQDLKRCKLANVFFDTFFNIEKYLDHEQKEQISLLRDGDSGGPELSDWEK
notes: PR70 (B''β), regulatory B'' subunit of PP2A, human, product of PPP2R3B; residues 130–504; source: E. coli BL21(DE3), purified (IMAC, TEV cleavage, gel filtration); not shown: His tag, N-terminal, cleaved

Experiment in all cases: ITC; B''-constructs at 20–40 µM in the cell titrated with 200–300 µM Aα or Aβ constructs; 15°C; 20 mM Tris pH 7.5, 200 mM NaCl, 2 mM CaCl2; 1:1 binding model
For orientation: Isothermal titration calorimetry measures the heat released or taken up as one component is titrated into another.

The assay “PR70 (25–575)” concerns the target B2.
The assay “PR70 (105–575)” concerns the target B1.
For another assay, the target named is T1, A α (HEAT1–15) (UniProt P30153 1-589).
T1 construct: PP2A scaffolding subunit A, α isoform, product of PPP2R1A; HEAT repeats 1–15; calculated molecular weight 65.3 kD; also called full length A-subunit; scaffolding A subunit; source: E. coli BL21(DE3), purified (IMAC, TEV cleavage, gel filtration); not shown: His tag, N-terminal, cleaved
To be noted: both partners purified.

T1 sequence (P30153 whole entry, canonical isoform): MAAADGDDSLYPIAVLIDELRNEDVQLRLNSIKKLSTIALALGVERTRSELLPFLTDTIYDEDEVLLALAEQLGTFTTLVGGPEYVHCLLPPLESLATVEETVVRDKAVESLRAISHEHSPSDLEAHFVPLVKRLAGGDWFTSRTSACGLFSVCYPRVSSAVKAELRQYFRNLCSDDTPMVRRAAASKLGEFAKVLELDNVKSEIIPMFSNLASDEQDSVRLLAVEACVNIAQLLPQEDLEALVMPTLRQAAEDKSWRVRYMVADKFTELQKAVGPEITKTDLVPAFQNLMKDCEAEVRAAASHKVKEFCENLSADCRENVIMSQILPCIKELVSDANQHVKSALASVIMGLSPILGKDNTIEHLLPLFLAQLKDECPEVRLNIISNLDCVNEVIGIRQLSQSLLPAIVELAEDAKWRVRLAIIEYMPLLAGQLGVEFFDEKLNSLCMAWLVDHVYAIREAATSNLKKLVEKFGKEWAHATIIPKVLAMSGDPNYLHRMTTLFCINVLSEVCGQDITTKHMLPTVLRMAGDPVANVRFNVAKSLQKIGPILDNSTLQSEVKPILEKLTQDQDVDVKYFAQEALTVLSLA

A word on the Kd: it is the concentration at which binding is half-saturated. High values mean weaker binding, low ones tighter binding. For orientation: stoichiometry N means the number of molecules, sites or subunits per partner or assembly. In the assay with PR70 (25–575), “A β (HEAT1–15) (from UniProt P30154 1-601) (natural protein)” yielded a Kd of 702 nM, a dH of -21.5 kcal/mol and a stoichiometry N of 1.01. In addition, in the assay with PR70 (105–575), the dissociation constant Kd is 411 nM, the dH is -17.1 kcal/mol and the stoichiometry N was determined as 0.86.
In the assay with A α (HEAT1–15), B1 showed a Kd of 45 ± 8 nM.
In the assay with A α (HEAT1–15), B2 came in with a Kd of 112 ± 6 nM.
For B3, in the assay with A α (HEAT1–15), the Kd was 2920 ± 300 nM.
Still for that read-out and setting: with B4 the figure was greater than 100000 nM; with B5, greater than 100000 nM.
On the same count and under the same terms, the result for B6 reads greater than 100000 nM.
